In one assay the target is T1, ECF16_973.
T1 chain: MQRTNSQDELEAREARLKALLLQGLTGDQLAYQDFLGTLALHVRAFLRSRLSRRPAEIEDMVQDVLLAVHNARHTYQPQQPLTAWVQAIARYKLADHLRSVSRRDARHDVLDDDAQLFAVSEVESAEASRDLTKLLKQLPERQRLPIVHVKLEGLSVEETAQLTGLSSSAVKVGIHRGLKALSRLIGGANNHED

In the next assay the target is T2, ECF01_3473.
T2 chain: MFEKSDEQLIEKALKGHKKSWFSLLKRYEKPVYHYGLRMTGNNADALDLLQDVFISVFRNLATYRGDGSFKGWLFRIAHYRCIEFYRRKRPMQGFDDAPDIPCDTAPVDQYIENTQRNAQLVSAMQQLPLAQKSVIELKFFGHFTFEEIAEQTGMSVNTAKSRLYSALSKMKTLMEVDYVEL

Another assay addresses T3, ECF27_4265.
T3 chain: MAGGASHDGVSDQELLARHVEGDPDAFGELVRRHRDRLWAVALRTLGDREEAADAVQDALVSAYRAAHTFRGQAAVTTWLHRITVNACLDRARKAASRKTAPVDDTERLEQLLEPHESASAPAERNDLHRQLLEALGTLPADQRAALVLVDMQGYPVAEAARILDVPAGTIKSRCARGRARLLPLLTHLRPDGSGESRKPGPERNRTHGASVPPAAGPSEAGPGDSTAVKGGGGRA

Another assay concerns the target T4, ECF03_1198.
T4 chain: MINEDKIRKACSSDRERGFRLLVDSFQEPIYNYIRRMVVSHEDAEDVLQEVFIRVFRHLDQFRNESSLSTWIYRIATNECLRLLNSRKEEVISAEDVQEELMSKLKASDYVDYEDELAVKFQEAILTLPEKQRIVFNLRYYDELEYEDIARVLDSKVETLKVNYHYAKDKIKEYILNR

In another assay the target is T5, ECF34_1384.
T5 chain: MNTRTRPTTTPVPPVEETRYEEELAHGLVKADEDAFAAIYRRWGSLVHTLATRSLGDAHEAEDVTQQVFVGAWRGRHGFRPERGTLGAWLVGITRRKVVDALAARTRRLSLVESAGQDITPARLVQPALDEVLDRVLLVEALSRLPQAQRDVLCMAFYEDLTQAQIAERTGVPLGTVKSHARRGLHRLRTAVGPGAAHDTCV

For a further assay, the target named is T6, ECF03_1244.
T6 chain: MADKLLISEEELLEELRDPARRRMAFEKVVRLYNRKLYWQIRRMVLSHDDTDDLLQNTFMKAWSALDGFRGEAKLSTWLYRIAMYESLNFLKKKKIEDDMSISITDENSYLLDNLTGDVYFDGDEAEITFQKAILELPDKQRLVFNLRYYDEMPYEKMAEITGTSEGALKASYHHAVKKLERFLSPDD

Another assay addresses T7, ECF11_987.
T7 chain: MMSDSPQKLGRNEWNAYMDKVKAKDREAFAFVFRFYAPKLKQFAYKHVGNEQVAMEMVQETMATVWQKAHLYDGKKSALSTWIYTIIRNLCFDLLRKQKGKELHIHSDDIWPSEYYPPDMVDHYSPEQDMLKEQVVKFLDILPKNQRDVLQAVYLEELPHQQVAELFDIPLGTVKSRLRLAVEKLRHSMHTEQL

The target of the next assay is T8, ECF02_915.
T8 chain: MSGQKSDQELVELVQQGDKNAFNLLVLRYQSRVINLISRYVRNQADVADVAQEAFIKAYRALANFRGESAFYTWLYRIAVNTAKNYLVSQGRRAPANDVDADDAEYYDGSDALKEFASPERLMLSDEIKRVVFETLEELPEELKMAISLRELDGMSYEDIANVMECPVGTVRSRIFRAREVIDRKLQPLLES

Another assay deals with T9, ECF30_35.
T9 chain: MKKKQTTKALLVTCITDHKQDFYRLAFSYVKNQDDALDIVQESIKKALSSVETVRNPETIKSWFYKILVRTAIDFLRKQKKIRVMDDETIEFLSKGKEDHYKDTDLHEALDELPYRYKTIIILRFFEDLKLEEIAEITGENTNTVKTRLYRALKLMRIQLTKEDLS

The target in a further assay is T10, ECF22_4450.
T10 chain: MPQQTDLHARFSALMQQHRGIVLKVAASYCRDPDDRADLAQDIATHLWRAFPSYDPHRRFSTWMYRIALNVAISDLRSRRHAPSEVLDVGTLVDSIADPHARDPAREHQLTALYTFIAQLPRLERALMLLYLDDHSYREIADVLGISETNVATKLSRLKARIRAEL

A further assay has as its target T11, ECF12_807.
T11 chain: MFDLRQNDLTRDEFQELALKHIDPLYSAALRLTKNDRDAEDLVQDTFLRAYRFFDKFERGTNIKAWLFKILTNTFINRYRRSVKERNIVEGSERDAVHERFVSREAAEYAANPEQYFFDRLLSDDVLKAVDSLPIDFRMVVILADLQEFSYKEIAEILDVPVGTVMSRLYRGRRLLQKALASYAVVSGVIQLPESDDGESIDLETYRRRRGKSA

A further assay addresses T12, ECF02_2817.
T12 chain: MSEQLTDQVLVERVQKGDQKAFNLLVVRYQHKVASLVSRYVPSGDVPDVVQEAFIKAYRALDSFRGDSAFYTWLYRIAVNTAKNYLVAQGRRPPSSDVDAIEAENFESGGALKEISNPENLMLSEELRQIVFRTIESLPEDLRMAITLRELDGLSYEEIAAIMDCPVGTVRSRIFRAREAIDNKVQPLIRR

The target of another assay is T13, ECF25_1645.
T13 chain: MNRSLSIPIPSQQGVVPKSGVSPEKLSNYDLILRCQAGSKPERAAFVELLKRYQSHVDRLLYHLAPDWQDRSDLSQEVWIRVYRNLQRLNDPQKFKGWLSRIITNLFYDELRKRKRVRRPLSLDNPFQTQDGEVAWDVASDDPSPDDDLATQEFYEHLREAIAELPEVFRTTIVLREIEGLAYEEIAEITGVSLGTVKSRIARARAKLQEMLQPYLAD

From PMC3817407 come the findings set out here.

B1: AS33_375 (protein)
chain: MMALSKKMLEQEPSEIELLLPWHAAGTLNARDARRVEDALARDPELAKQYAAIRGEYEETIHLNESLGAPSARAMQKLFGAIDAEPARETGSLPLSARIATFFASLSPRTLAWSASLGAVALVLQAGIIGAVLMKTQPTTFQTASLSTSAPITRELGAAVAPARALVRFTPEARVADITALLDSYQASIIGDAKGGMFRLQFDKAMSQDELASLLGRMQREKFVNLAVAAP
Consider B1, for which the fold repression amounted to 9.87 with ECF16_973; 5.29 in the assay with ECF01_3473; 5.34 in the assay with ECF27_4265; 21.3 with ECF03_1198; 14.1 with ECF26_4464; 12.2 with ECF34_1384. Further, the fold repression in the assay with ECF03_1244 came out at 16.3; with ECF11_987, 17.1; with ECF02_915 it was 4.71; with ECF30_35, 4.68; with ECF22_4450 it was 31; in the assay with ECF12_807, 7.97. Besides, the values for the fold repression with ECF02_2817 and with ECF25_1645 were 5.75 and 5.35, respectively.

B2: AS27_4265 (protein)
chain: MTGHPDVAEIADLAEGLLPTTRTTEVRQHLESCELCADVYASLTEIQGLLGTLPAPAPMPDDVAARIDAALAAEPPLGIADGTRVSRETSTPADRPAGHARPSSTGPGRKDRRRGGRRRIAVLGAVAAAAAIGIGSVVVSSLTEDSSSGNTAREQQTAIADTFSEGRLKDRVTNLVADGSAENGSRTPRSFGMESENGGETAENHVFKQPTVPECIRKGIGRDDAVIATEPGVYKGREALLVVLPDATNDTQVTAYIVETACVDQPAVGKAKILLEHSYARS
In the case of B2, the fold repression in the assay with ECF16_973 turned out to be 1.77; with ECF01_3473 it was 3.99; in the assay with ECF27_4265, 152; in the assay with ECF03_1198, 2.19; with ECF26_4464, 5.53; with ECF34_1384, 5.28. Further, the fold repression amounted to 1.38 in the assay with ECF03_1244; 5.93 in the assay with ECF11_987; 2.41 in the assay with ECF02_915; 5.45 with ECF30_35; 4.03 in the assay with ECF22_4450; 8.59 in the assay with ECF12_807. Further, the fold repression with ECF02_2817 is 1.4; with ECF25_1645, 1.02.

B3: AS33_423 (protein)
chain: MMAMSNTMPDPREPGDVEALLPWYAAGTLNARDARRVADALDRDPALARQYAVILEEYASTIELNESLGAPSSRAMQKLFAAIDAEPARAPGAGQGLGARFAGFFAGLSPKALAWSASVAGLALLLQAGLIGALLTWPHAAPVQTAAYQPQREVARAPASSPAPATVSPPAAAMADRAADAGKSTPPMVMAERSGGPVVRSLAPQSGPRVLVKFAPEARASEIAALLDQYNAVVVDSSRGGLFRLQFGTQSLSKQDQETLIGRLQKEPVVSVVLSAP
Take B3: the fold repression with ECF16_973 was determined as 14.6; in the assay with ECF01_3473 it was 3.36; with ECF27_4265 it was 5.38; in the assay with ECF03_1198, 15; with ECF26_4464 it was 9.42; in the assay with ECF34_1384 it was 8.97. The fold repression came to 13.5 with ECF03_1244; 13.7 in the assay with ECF11_987; 4.97 with ECF02_915; 3.09 in the assay with ECF30_35; 23.1 with ECF22_4450; 6.47 with ECF12_807. The fold repression in the assay with ECF02_2817 stood at 5.47; with ECF25_1645, 3.68.

B4: AS30_35 (protein)
chain: MDKRLQQLREEYKNVQIPKELDIIVEKALQQEPKKKRIVMWPTSAAIAAAILFTALVNINPDAAQAMSKIPVIGKIVKAITFIEIKEEKDQSSIDVKTPALSGLSNKELENSINEKYLKESQQLYKEFIQSTSKNKKGHLSIYSDYETVTDTPDLLSIRRNIETTQASSYTQSRYITIDKKNDILLTLKSLFKDERYIKVISQNIKEQMKQQMKEDPNKIYWLTDEDAEPFKTILPDQTFYITEDHKLVISFDEYEVAPGYMGVTEFTIPTGVISNLLVGERYIR
Take B4: the fold repression came to 1.73 in the assay with ECF16_973; 1.65 with ECF01_3473; 1.44 in the assay with ECF27_4265; 1.96 in the assay with ECF03_1198; 2.19 in the assay with ECF26_4464; 2.04 with ECF34_1384. Besides, the fold repression with ECF03_1244 turned out to be 1.74; in the assay with ECF11_987, 2.11; with ECF02_915 it was 2.15; with ECF30_35, 55.4; with ECF22_4450 it was 2.21; in the assay with ECF12_807 it was 3.12. In addition, the fold repression with ECF02_2817 is 1.56; with ECF25_1645 it was 1.69.

B5: AS31_34 (protein)
chain: MNKEKLSDHLKSEWKKIDQTANPSIPNQKELLHQLSQMKAEYRKKLLQEIILFVFCALMVVSAAILAFTQAPAVFIVLQVCVLAVLPILIAAEKKRHLGECEVKRG
As for B5, the fold repression stood at 1.84 in the assay with ECF16_973; 1.76 with ECF01_3473; 1.48 in the assay with ECF27_4265; 2.96 in the assay with ECF03_1198; 3.63 with ECF26_4464; 2.98 with ECF34_1384. The fold repression with ECF03_1244 came out at 2.34; with ECF11_987 it was 3.03; in the assay with ECF02_915 it was 1.32; with ECF30_35, 1.68; in the assay with ECF22_4450 it was 3.59; with ECF12_807, 3.66. Besides, the figures for the fold repression in the assay with ECF02_2817 and in the assay with ECF25_1645 were 1.79 and 1.99, respectively.
